# Positions count from the first letter of the chain named.
# B1: DVD3013 (bispecific antibody, IgG1)
# VH: EVTLRESGPGLVKPTQTLTLTCTLYGFSLSTSDMGVDWIRQPPGKGLEWLAHIWWDDVKRYNPALKSRLTISKDTSKNQVVLKLTSVDPVDTATYYCARTVSSGYIYYAMDYWGQGTLVTVSSGGGGSGGGGSEVQLVQSGAEVKKPGASVKVSCKASGYTFNNYGIIWVRQAPGQGLEWMGWINTYTGKPTYAQKFQGRVTMTTDTSTSTAYMELSSLRSEDTAVYYCARKLFNTVAVTDNAMDYWGQGTTVTVSS
# VL: DIQMTQSPSSLSASVGDRVTISCRASQDIRNYLNWYQQKPGKAPKLLIFYTSKLHSGVPSRFSGSGSGTDYTLTISSLQPEDIATYYCQQGLTPPLTFGGGTKVEIKRGGSGGGGSGDIQMTQSPSSLSASVGDRVTITCRASQDIENYLNWYQQKPGKAPKLLIYYTSRLQSGVPSRFSGSGSGTDFTLTISSLQPEDFATYFCQQGNTQPPTFGQGTKLEIKR
# B2: DVD3088 (bispecific antibody, IgG1)
# VH: EVQLVQSGAEVKKPGASVKVSCKASGYTFTTYGVSWVRQAPGQGLEWMGEIYPGNYNTYYNEKFRGRVTMTTDTSTSTAYMELRSLRSDDTAVYYCARWRTSYFSDYGYFDYWGQGTTVTVSSGGGGSGGGGSEVQLVESGGGLVQPGGSLRLSCAASGFTFSNYGVTWVRQAPGKGLEWVSMIWADGSTHYASSVKGRFTISRDNSKNTLYLQMNSLRAEDTAVYYCAREWQHGPVAYWGQGTLVTVSS
# VL: DVVMTQSPLSLPVTLGQPASISCRSSQSLVHSHGNTYLHWYQQRPGQSPRLLIYTVSNRFSGVPDRFSGSGSGTDFTLKISRVEAEDVGVYYCSQSTHVPYTFGGGTKVEIKRGGSGGGGSGDIQMTQSPSSLSASVGDRVTITCRASQLVSSAVAWYQQKPGKAPKLLIYWASARHTGVPSRFSGSGSGTDFTLTISSLQPEDFATYYCQQHYKTPFTFGQGTKLEIKR
# B3: DVD2791 (bispecific antibody, IgG1)
# VH: EVTLRESGPGLVKPTQTLTLTCTLYGFSLSTSDMGVDWIRQPPGKGLEWLAHIWWDDVKRYNPALKSRLTISKDTSKNQVVLKLTSVDPVDTATYYCARTVSSGYIYYAMDYWGQGTLVTVSSASTKGPEVQLVQSGAEVKKPGASVKVSCKASGYTFANYGIIWVRQAPGQGLEWMGWINTYTGKPTYAQKFQGRVTMTTDTSTSTAYMELSSLRSEDTAVYYCARKLFTTMDVTDNAMDYWGQGTTVTVSS
# VL: DIQMTQSPSSLSASVGDRVTISCRASQDIRNYLNWYQQKPGKAPKLLIFYTSKLHSGVPSRFSGSGSGTDYTLTISSLQPEDIATYYCQQGLTPPLTFGGGTKVEIKRTVAAPSVFIFPPDIQMTQSPSSLSASVGDRVTITCRASQDISQYLNWYQQKPGKAPKLLIYYTSRLQSGVPSRFSGSGSGTDFTLTISSLQPEDFATYFCQQGNTWPPTFGQGTKLEIKR
# B4: DVD3014 (bispecific antibody, IgG1)
# VH: B3 VH with A159N, T231N, M233V, D234A
# VL: DIQMTQSPSSLSASVGDRVTISCRASQDIRNYLNWYQQKPGKAPKLLIFYTSKLHSGVPSRFSGSGSGTDYTLTISSLQPEDIATYYCQQGLTPPLTFGGGTKVEIKRTVAAPDIQMTQSPSSLSASVGDRVTITCRASQDIENYLNWYQQKPGKAPKLLIYYTSRLQSGVPSRFSGSGSGTDFTLTISSLQPEDFATYFCQQGNTQPPTFGQGTKLEIKR
# B5: DVD3016 (bispecific antibody, IgG1)
# VH: B3 VH with A159N, T231N, M233V, D234A
# VL: B3 VL with S150E, Q151N, W214Q
# B6: DVD3011 (bispecific antibody, IgG1)
# VH: EVQLVQSGAEVKKPGASVKVSCKASGYTFNNYGIIWVRQAPGQGLEWMGWINTYTGKPTYAQKFQGRVTMTTDTSTSTAYMELSSLRSEDTAVYYCARKLFNTVAVTDNAMDYWGQGTTVTVSSASTKGPEVTLRESGPGLVKPTQTLTLTCTLYGFSLSTSDMGVDWIRQPPGKGLEWLAHIWWDDVKRYNPALKSRLTISKDTSKNQVVLKLTSVDPVDTATYYCARTVSSGYIYYAMDYWGQGTLVTVSS
# VL: DIQMTQSPSSLSASVGDRVTITCRASQDIENYLNWYQQKPGKAPKLLIYYTSRLQSGVPSRFSGSGSGTDFTLTISSLQPEDFATYFCQQGNTQPPTFGQGTKLEIKRTVAAPSVFIFPPDIQMTQSPSSLSASVGDRVTISCRASQDIRNYLNWYQQKPGKAPKLLIFYTSKLHSGVPSRFSGSGSGTDYTLTISSLQPEDIATYYCQQGLTPPLTFGGGTKVEIKR
# B7: DVD3012 (bispecific antibody, IgG1)
# VH: EVQLVQSGAEVKKPGASVKVSCKASGYTFNNYGIIWVRQAPGQGLEWMGWINTYTGKPTYAQKFQGRVTMTTDTSTSTAYMELSSLRSEDTAVYYCARKLFNTVAVTDNAMDYWGQGTTVTVSSASTKGPSVFPLAPEVTLRESGPGLVKPTQTLTLTCTLYGFSLSTSDMGVDWIRQPPGKGLEWLAHIWWDDVKRYNPALKSRLTISKDTSKNQVVLKLTSVDPVDTATYYCARTVSSGYIYYAMDYWGQGTLVTVSS
# VL: DIQMTQSPSSLSASVGDRVTITCRASQDIENYLNWYQQKPGKAPKLLIYYTSRLQSGVPSRFSGSGSGTDFTLTISSLQPEDFATYFCQQGNTQPPTFGQGTKLEIKRTVAAPDIQMTQSPSSLSASVGDRVTISCRASQDIRNYLNWYQQKPGKAPKLLIFYTSKLHSGVPSRFSGSGSGTDYTLTISSLQPEDIATYYCQQGLTPPLTFGGGTKVEIKR
# B8: DVD2792 (bispecific antibody, IgG1)
# VH: EVTLRESGPGLVKPTQTLTLTCTLYGFSLSTSDMGVDWIRQPPGKGLEWLAHIWWDDVKRYNPALKSRLTISKDTSKNQVVLKLTSVDPVDTATYYCARTVSSGYIYYAMDYWGQGTLVTVSSASTKGPSVFPLAPEVQLVQSGAEVKKPGASVKVSCKASGYTFANYGIIWVRQAPGQGLEWMGWINTYTGKPTYAQKFQGRVTMTTDTSTSTAYMELSSLRSEDTAVYYCARKLFTTMDVTDNAMDYWGQGTTVTVSS
# VL: B4 VL with E143S, N144Q, Q207W
# B9: DVD3017 (bispecific antibody, IgG1)
# VH: B8 VH with A166N, T238N, M240V, D241A
# VL: B4 VL
# Target: Recombinant Human TNF-α/TNFSF1A (human, UniProt P01375 77-233)
# Sequence (P01375 77-233 limits assumed): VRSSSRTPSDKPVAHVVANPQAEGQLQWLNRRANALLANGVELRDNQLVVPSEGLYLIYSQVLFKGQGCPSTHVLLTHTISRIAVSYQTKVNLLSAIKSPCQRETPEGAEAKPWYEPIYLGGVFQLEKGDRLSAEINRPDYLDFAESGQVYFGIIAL
# Experiment: cell-based or functional assay
Binder,C-Terminal VD huTNFα Neutralization Assay IC50 [nM],N-Terminal VD huTNFα Neutralization Assay IC50 [nM]
B1,0.229,–
B2,0.472,–
B3,0.064,–
B4,0.49,–
B5,0.148,–
B6,–,0.024
B7,–,0.034
B8,0.136,–
B9,0.234,–

# Reference: patent US20140271457A1 (AbbVie / Abbott, published 2014)
